# T1: MexA (Pseudomonas aeruginosa), P52477
# T1 chain: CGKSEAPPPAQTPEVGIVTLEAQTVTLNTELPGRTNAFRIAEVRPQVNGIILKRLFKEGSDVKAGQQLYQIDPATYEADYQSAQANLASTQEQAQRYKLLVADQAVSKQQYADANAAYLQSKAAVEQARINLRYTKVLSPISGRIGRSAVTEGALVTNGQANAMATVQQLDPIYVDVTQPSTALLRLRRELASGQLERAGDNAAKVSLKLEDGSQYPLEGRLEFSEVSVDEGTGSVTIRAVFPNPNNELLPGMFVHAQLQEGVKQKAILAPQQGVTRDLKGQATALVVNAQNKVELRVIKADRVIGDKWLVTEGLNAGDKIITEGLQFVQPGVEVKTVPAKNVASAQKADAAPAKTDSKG
# B1: MexA, P52477 24-383 (natural protein)
# chain: T1 chain
# modifications: here or on the partner: lipid moiety of the N-terminal cysteine; lipid moiety of the N-terminal cysteine
# B2: MexA (natural protein)
# chain: T1 chain
# modifications: lipid moiety of the N-terminal cysteine
# notes: MexA, periplasmic membrane fusion lipoprotein of Pseudomonas aeruginosa; N-terminal cysteine carries a lipid moiety; Six copies (a hexamer of two non-equivalent protomers, MexA-I and MexA-II) stand in the tripartite complex; also called MexA-I; MexA-II; source: reconstituted with MexB in POPC nanodiscs or DOPC/cholesterol proteoliposomes
# B3: MexB (natural protein)
# chain: MSKFFIDRPIFAWVIALVIMLAGGLSILSLPVNQYPAIAPPAIAVQVSYPGASAETVQDTVVQVIEQQMNGIDNLRYISSESNSDGSMTITVTFEQGTDPDIAQVQVQNKLQLATPLLPQEVQRQGIRVTKAVKNFLMVVGVVSTDGSMTKEDLSNYIVSNIQDPLSRTKGVGDFQVFGSQYSMRIWLDPAKLNSYQLTPGDVSSAIQAQNVQISSGQLGGLPAVKGQQLNATIIGKTRLQTAEQFENILLKVNPDGSQVRLKDVADVGLGGQDYSINAQFNGSPASGIAIKLATGANALDTAKAIRQTIANLEPFMPQGMKVVYPYDTTPVVSASIHEVVKTLGEAILLVFLVMYLFLQNFRATLIPTIAVPVVLLGTFGVLAAFGFSINTLTMFGMVLAIGLLVDDAIVVVENVERVMAEEGLSPREAARKSMGQIQGALVGIAMVLSAVFLPMAFFGGSTGVIYRQFSITIVSAMALSVIVALILTPALCATMLKPIEKGDHGEHKGGFFGWFNRMFLSTTHGYERGVASILKHRAPYLLIYVVIVAGMIWMFTRIPTAFLPDEDQGVLFAQVQTPPGSSAERTQVVVDSMREYLLEKESSSVSSVFTVTGFNFAGRGQSSGMAFIMLKPWEERPGGENSVFELAKRAQMHFFSFKDAMVFAFAPPSVLELGNATGFDLFLQDQAGVGHEVLLQARNKFLMLAAQNPALQRVRPNGMSDEPQYKLEIDDEKASALGVSLADINSTVSIAWGSSYVNDFIDRGRVKRVYLQGRPDARMNPDDLSKWYVRNDKGEMVPFNAFATGKWEYGSPKLERYNGVPAMEILGEPAPGLSSGDAMAAVEEIVKQLPKGVGYSWTGLSYEERLSGSQAPALYALSLLVVFLCLAALYESWSIPFSVMLVVPLGVIGALLATSMRGLSNDVFFQVGLLTTIGLSAKNAILIVEFAKELHEQGKGIVEAAIEACRMRLRPIVMTSLAFILGVVPLAISTGAGSGSQHAIGTGVIGGMVTATVLAIFWVPLFYVAVSTLFKDEASKQQASVEKGQ
# notes: MexB, inner-membrane RND multidrug efflux transporter of Pseudomonas aeruginosa; wild type; Homotrimer, both alone in the nanodisc (MexB-solo, LTC form) and in the tripartite complex (MexB-trio, LTO form); also called MexB-solo; MexB-trio; source: reconstituted in POPC nanodiscs (MSP1E3D1) or DOPC/cholesterol proteoliposomes
# B4: OprM (natural protein)
# chain: CSLIPDYQRPEAPVAAAYPQGQAYGQNTGAAAVPAADIGWREFFRDPQLQQLIGVALENNRDLRVAALNVEAFRAQYRIQRADLFPRIGVDGSGTRQRLPGDLSTTGSPAISSQYGVTLGTTAWELDLFGRLRSLRDQALEQYLATEQAQRSAQTTLVASVATAYLTLKADQAQLQLTKDTLGTYQKSFDLTQRSYDVGVASALDLRQAQTAVEGARATLAQYTRLVAQDQNALVLLLGSGIPANLPQGLGLDQTLLTEVPAGLPSDLLQRRPDILEAEHQLMAANASIGAARAAFFPSISLTANAGTMSRQLSGLFDAGSGSWLFQPSINLPIFTAGSLRASLDYAKIQKDINVAQYEKAIQTAFQEVADGLAARGTFTEQLQAQRDLVKASDEYYQLADKRYRTGVDNYLTLLDAQRSLFTAQQQLITDRLNQLTSEVNLYKALGGGWNQQTVTQQQTAKKEDPQA
# notes: OprM, outer-membrane factor of the MexAB-OprM efflux system of Pseudomonas aeruginosa; Homotrimer; also called OprM-ND; outer-membrane factor (OMF); source: reconstituted in POPC nanodiscs (MSP1D1) or DOPC proteoliposomes
# How the values were obtained:
# Assay in all cases: cryo-EM structure; tripartite MexAB-OprM complex self-assembled from MexA and MexB in POPC nanodiscs and OprM in POPC nanodiscs; 10 mM Tris/Cl pH 7.4, 100 mM NaCl; enriched by SEC (Superose 6, detergent-free buffer); single-particle analysis, no symmetry imposed
# [1] = biological target: T1, MexA (Pseudomonas aeruginosa), P52477; settings: remark: other sources report otherwise
# OprM = biological target: B4; settings: both partners purified
# [2] = biological target: the molecule itself
Binder,stoichiometry N [2],also measured
B1,,stoichiometry N [1]: 6
B2,,stoichiometry N (OprM): 2 MexA per OprM
B3,3,
B4,3,

# — article PMC7532149, “Antibiotic export by MexB multidrug efflux transporter is allosterically controlled by a MexA-OprM chaperone-like complex” (Nature Communications, 2020)
